Consider one substance from patent US20190134169A1.

This assay has as its target mouse Notch1 on CD4+ T cells (mouse) (UniProt Q01705). Kind of assay: cell-based or functional assay.
Chain of UniProt Q01705 (Q01705 19-2531): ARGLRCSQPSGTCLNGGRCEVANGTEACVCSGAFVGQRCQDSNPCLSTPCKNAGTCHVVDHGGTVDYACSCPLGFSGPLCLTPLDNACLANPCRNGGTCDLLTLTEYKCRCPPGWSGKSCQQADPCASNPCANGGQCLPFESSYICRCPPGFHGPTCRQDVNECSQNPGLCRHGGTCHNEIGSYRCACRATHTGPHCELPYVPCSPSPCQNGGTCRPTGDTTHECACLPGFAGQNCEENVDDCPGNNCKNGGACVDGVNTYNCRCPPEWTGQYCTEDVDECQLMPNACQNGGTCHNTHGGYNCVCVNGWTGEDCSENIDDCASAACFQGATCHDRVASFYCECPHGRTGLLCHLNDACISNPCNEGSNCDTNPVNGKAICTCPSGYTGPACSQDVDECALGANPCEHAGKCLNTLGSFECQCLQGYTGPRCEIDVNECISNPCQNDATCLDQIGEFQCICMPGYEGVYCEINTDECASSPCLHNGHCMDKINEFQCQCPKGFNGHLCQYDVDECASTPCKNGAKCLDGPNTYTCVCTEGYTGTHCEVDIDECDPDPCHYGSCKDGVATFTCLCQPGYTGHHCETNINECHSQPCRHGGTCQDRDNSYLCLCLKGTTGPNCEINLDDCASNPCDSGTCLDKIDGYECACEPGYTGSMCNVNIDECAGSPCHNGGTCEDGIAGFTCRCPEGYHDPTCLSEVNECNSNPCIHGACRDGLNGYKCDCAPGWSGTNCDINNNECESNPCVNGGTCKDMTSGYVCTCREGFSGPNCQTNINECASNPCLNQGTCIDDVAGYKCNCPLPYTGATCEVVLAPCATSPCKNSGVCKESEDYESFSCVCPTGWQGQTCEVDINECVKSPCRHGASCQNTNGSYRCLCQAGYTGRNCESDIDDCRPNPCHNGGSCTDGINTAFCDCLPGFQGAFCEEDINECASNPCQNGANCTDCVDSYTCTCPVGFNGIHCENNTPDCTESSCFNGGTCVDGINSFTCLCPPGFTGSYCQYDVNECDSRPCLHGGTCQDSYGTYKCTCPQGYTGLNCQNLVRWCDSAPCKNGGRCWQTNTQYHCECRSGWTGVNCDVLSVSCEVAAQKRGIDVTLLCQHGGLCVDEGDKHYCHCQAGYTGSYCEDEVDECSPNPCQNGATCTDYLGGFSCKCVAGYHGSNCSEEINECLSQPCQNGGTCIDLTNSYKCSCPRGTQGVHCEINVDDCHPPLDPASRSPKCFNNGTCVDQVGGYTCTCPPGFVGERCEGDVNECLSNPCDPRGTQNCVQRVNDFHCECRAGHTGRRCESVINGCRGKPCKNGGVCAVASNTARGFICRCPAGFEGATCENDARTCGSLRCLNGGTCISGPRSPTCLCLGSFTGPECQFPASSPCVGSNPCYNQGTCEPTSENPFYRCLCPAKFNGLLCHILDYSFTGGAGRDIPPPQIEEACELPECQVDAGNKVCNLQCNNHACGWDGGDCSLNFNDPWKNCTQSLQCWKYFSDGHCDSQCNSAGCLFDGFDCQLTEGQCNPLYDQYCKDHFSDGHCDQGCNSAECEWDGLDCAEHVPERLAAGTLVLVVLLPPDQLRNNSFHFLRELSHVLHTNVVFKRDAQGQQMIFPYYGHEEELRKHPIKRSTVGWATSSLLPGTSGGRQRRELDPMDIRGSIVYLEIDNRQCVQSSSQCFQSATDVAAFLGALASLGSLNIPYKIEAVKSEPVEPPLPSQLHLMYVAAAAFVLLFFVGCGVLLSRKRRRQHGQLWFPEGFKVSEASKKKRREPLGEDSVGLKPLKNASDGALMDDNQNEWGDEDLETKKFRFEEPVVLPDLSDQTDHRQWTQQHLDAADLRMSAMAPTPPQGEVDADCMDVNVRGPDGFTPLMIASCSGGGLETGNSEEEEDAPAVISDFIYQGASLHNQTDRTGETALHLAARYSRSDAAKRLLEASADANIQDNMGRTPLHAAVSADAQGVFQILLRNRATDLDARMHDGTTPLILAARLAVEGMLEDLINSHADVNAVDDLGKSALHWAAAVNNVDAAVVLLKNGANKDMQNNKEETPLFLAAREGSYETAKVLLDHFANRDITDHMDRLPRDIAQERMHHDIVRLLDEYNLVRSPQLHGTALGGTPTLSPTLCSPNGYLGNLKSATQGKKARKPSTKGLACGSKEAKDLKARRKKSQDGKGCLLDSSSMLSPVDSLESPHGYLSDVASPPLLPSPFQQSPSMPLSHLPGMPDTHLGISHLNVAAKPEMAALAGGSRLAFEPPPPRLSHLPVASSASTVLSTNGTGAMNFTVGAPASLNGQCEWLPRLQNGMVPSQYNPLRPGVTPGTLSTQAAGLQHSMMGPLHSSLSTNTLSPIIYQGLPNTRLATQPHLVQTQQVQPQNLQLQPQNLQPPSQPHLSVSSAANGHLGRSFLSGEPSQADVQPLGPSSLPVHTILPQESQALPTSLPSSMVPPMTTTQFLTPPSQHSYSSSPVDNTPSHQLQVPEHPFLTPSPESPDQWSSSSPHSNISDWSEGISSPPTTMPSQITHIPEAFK

Consider “mouse delta-like ligand 4 (DLL4) on the surface of DLL4hiDCs (from UniProt Q9JI71 27-686)”, for which the percentage of DLL4hiDC-activated CD4+ T cells with high cleaved intracellular Notch (ICN) was found to be 61%.
